The text below walks through data of article PMC6021111, “Murine leukemia virus p12 tethers the capsid-containing pre-integration complex to chromatin by binding directly to host nucleosomes in mitosis” (PLoS Pathogens, 2018).

B1: unnamed (parent)
chain 1: PALTPSLGAKPKPQVLSDSGGPLIDLLTEDPPPYRDPRPPPSDRDGNGGEATPAGEAPDPSPMASRLRGRREPPVADSTTSQAF
chain 2: MAQILPIRFQEHLQLQNLGINPANIGFSTLTMESDKFICIREKVGEQAQVVIIDMNDPSNPIRRPISADSAIMNPASKVIALKAGKTLQIFNIEMKSKMKAHTMTDDVTFWKWISLNTVALVTDNAVYHWSMEGESQPVKMFDRHSSLAGCQIINYRTDAKQKWLLLTGISAQQNRVVGAMQLYSVDRKVSQPIEGHAASFAQFKMEGNAEESTLFCFAVRGQAGGKLHIIEVGTPPTGNQPFPKKAVDVFFPPEAQNDFPVAMQISEKHDVVFLITKYGYIHLYDLETGTCIYMNRISGETIFVTAPHEATAGIIGVNRKGQVLSVCVEEENIIPYITNVLQNPDLALRMAVRNNLAGAEELFARKFNALFAQGNYSEAAKVAANAPKGILRTPDTIRRFQSVPAQPGQTSPLLQYFGILLDQGQLNKYESLELCRPVLQQGRKQLLEKWLKEDKLECSEELGDLVKSVDPTLALSVYLRANVPNKVIQCFAETGQVQKIVLYAKKVGYTPDWIFLLRNVMRISPDQGQQFAQMLVQDEEPLADITQIVDVFMEYNLIQQCTAFLLDALKNNRPSEGPLQTRLLEMNLMHAPQVADAILGNQMFTHYDRAHIAQLCEKAGLLQRALEHFTDLYDIKRAVVHTHLLNPEWLVNYFGSLSVEDSLECLRAMLSANIRQNLQICVQVASKYHEQLSTQSLIELFESFKSFEGLFYFLGSIVNFSQDPDVHFKYIQAACKTGQIKEVERICRESNCYDPERVKNFLKEAKLTDQLPLIIVCDRFDFVHDLVLYLYRNNLQKYIEIYVQKVNPSRLPVVIGGLLDVDCSEDVIKNLILVVRGQFSTDELVAEVEKRNRLKLLLPWLEARIHEGCEEPATHNALAKIYIDSNNNPERFLRENPYYDSRVVGKYCEKRDPHLACVAYERGQCDLELINVCNENSLFKSLSRYLVRRKDPELWGSVLLESNPYRRPLIDQVVQTALSETQDPEEVSVTVKAFMTADLPNELIELLEKIVLDNSVFSEHRNLQNLLILTAIKADRTRVMEYINRLDNYDAPDIANIAISNELFEEAFAIFRKFDVNTSAVQVLIEHIGNLDRAYEFAERCNEPAVWSQLAKAQLQKGMVKEAIDSYIKADDPSSYMEVVQAANTSGNWEELVKYLQMARKKARESYVETELIFALAKTNRLAELEEFINGPNNAHIQQVGDRCYDEKMYDAAKLLYNNVSNFGRLASTLVHLGEYQAAVDGARKANSTRTWKEVCFACVDGKEFRLAQMCGLHIVVHADELEELINYYQDRGYFEELITMLEAALGLERAHMGMFTELAILYSKFKPQKMREHLELFWSRVNIPKVLRAAEQAHLWAELVFLYDKYEEYDNAIITMMNHPTDAWKEGQFKDIITKVANVELYYRAIQFYLEFKPLLLNDLLMVLSPRLDHTRAVNYFSKVKQLPLVKPYLRSVQNHNNKSVNESLNNLFITEEDYQALRTSIDAYDNFDNISLAQRLEKHELIEFRRIAAYLFKGNNRWKQSVELCKKDSLYKDAMQYASESKDTELAEELLQWFLQEEKRECFGACLFTCYDLLRPDVVLETAWRHNIMDFAMPYFIQVMKEYLTKVDKLDASESLRKEEEQATETQPIVYGQPQLMLTAGPSVAVPPQAPFGYGYTAPPYGQPQPGFGYSM
B2: unnamed (parent)
chain 1: B1 chain 1
chain 2: MLNMWKVRELVDKATNVVMNYSEIESKVREATNDDPWGPSGQLMGEIAKATFMYEQFPELMNMLWSRMLKDNKKNWRRVYKSLLLLAYLIRNGSERVVTSAREHIYDLRSLENYHFVDEHGKDQGINIRQKVKELVEFAQDDDRLREERKKAKKNKDKYVGVSSDSVGGFRYSERYDPEPKSKWDEEWDKNKSAFPFSDKLGELSDKIGSTIDDTISKFRRKDREDSPERCSDSDEEKKARRGRSPKGEFKDEEETVTTKHIHITQATETTTTRHKRTANPSKTIDLGAAAHYTGDKASPDQNASTHTPQSSVKTSVPSSKSSGDLVDLFDGTSQSTGGSADLFGGFADFGSAAASGSFPSQVTATSGNGDFGDWSAFNQAPSGPVASSGEFFGSASQPAVELVSGSQSALGPPPAASNSSDLFDLMGSSQATMTSSQSMNFSMMSTNTVGLGLPMSRSQNTDMVQKSVSKTLPSTWSDPSVNISLDNLLPGMQPSKPQQPSLNTMIQQQNMQQPMNVMTQSFGAVNLSSPSNMLPVRPQTNALIGGPMPMSMPNVMTGTMGMAPLGNTPMMNQSMMGMNMNIGMSAAGMGLTGTMGMGMPNIAMTSGTVQPKQDAFANFANFSK
B3: unnamed (parent)
chain 1: B1 chain 1
chain 2: MAELDPFGAPAGAPGGPALGNGVAGAGEEDPAAAFLAQQESEIAGIENDEAFAILDGGAPGPQPHGEPPGGPDAVDGVMNGEYYQESNGPTDSYAAISQVDRLQSEPESIRKWREEQMERLEALDANSRKQEAEWKEKAIKELEEWYARQDEQLQKTKANNRVADEAFYKQPFADVIGYVTNINHPCYSLEQAAEEAFVNDIDESSPGTEWERVARLCDFNPKSSKQAKDVSRMRSVLISLKQAPLVH
B4: unnamed (parent)
chain 1: B1 chain 1
chain 2: MAQISSNSGFKECPSSHPEPTRAKDVDKEEALQMEAEALAKLQKDRQVTDNQRGFELSSSTRKKAQVYNKQDYDLMVFPESDSQKRALDIDVEKLTQAELEKLLLDDSFETKKTPVLPVTPILSPSFSAQLYFRPTIQRGQWPPGLPGPSTYALPSIYPSTYSKQAAFQNGFNPRMPTFPSTEPIYLSLPGQSPYFSYPLTPATPFHPQGSLPIYRPVVSTDMAKLFDKIASTSEFLKNGKARTDLEITDSKVSNLQVSPKSEDISKFDWLDLDPLSKPKVDNVEVLDHEEEKNVSSLLAKDPWDAVLLEERSTANCHLERKVNGKSLSVATVTRSQSLNIRTTQLAKAQGHISQKDPNGTSSLPTGSSLLQEVEVQNEEMAAFCRSITKLKTKFPYTNHRTNPGYLLSPVTAQRNICGENASVKVSIDIEGFQLPVTFTCDVSSTVEIIIMQALCWVHDDLNQVDVGSYVLKVCGQEEVLQNNHCLGSHEHIQNCRKWDTEIRLQLLTFSAMCQNLARTAEDDETPVDLNKHLYQIEKPCKEAMTRHPVEELLDSYHNQVELALQIENQHRAVDQVIKAVRKICSALDGVETLAITESVKKLKRAVNLPRSKTADVTSLFGGEDTSRSSTRGSLNPENPVQVSINQLTAAIYDLLRLHANSGRSPTDCAQSSKSVKEAWTTTEQLQFTIFAAHGISSNWVSNYEKYYLICSLSHNGKDLFKPIQSKKVGTYKNFFYLIKWDELIIFPIQISQLPLESVLHLTLFGILNQSSGSSPDSNKQRKGPEALGKVSLPLFDFKRFLTCGTKLLYLWTSSHTNSVPGTVTKKGYVMERIVLQVDFPSPAFDIIYTTPQVDRSIIQQHNLETLENDIKGKLLDILHKDSSLGLSKEDKAFLWEKRYYCFKHPNCLPKILASAPNWKWVNLAKTYSLLHQWPALYPLIALELLDSKFADQEVRSLAVTWIEAISDDELTDLLPQFVQALKYEIYLNSSLVQFLLSRALGNIQIAHNLYWLLKDALHDVQFSTRYEHVLGALLSVGGKRLREELLKQTKLVQLLGGVAEKVRQASGSARQVVLQRSMERVQSFFQKNKCRLPLKPSLVAKELNIKSCSFFSSNAVPLKVTMVNADPMGEEINVMFKVGEDLRQDMLALQMIKIMDKIWLKEGLDLRMVIFKCLSTGRDRGMVELVPASDTLRKIQVEYGVTGSFKDKPLAEWLRKYNPSEEEYEKASENFIYSCAGCCVATYVLGICDRHNDNIMLRSTGHMFHIDFGKFLGHAQMFGSFKRDRAPFVLTSDMAYVINGGEKPTIRFQLFVDLCCQAYNLIRKQTNLFLNLLSLMIPSGLPELTSIQDLKYVRDALQPQTTDAEATIFFTRLIESSLGSIATKFNFFIHNLAQLRFSGLPSNDEPILSFSPKTYSFRQDGRIKEVSVFTYHKKYNPDKHYIYVVRILREGQIEPSFVFRTFDEFQELHNKLSIIFPLWKLPGFPNRMVLGRTHIKDVAAKRKIELNSYLQSLMNASTDVAECDLVCTFFHPLLRDEKAEGIARSADAGSFSPTPGQIGGAVKLSISYRNGTLFIMVMHIKDLVTEDGADPNPYVKTYLLPDNHKTSKRKTKISRKTRNPTFNEMLVYSGYSKETLRQRELQLSVLSAESLRENFFLGGVTLPLKDFNLSKETVKWYQLTAATYL

One test covers variants of B1. In words: SILAC-MS of GST pull-down. To be noted: with partner chain of the complex shown; mitotic 293T cell lysates; replicate R1.
On to chain 1 S65A R66A L67A R68A G69A, for which the screen value (SDs from the mean) stood at 1.

Staying with this test, now noted: with partner chain of the complex shown; mitotic 293T cell lysates; replicate R2.
chain 1 S65A R66A L67A R68A G69A: the screen value (SDs from the mean) is 2.3.

In another test the parent is B2. In words: SILAC-MS of GST pull-down. To be noted: with partner chain of the complex shown; mitotic 293T cell lysates; replicate R1.
Consider chain 1 S65A R66A L67A R68A G69A, for which the screen value (SDs from the mean) stood at 1.4.

The test is the same for the next values; noted with them: with partner chain of the complex shown; mitotic 293T cell lysates; replicate R2.
On to chain 1 S65A R66A L67A R68A G69A, for which the screen value (SDs from the mean) amounted to 3.3.

The variants in a further test derive from B3. Kind of test: SILAC-MS of GST pull-down. The following applies: with partner chain of the complex shown; mitotic 293T cell lysates; replicate R2.
Turning to chain 1 S65A R66A L67A R68A G69A, the screen value (SDs from the mean) stood at 1.4.

The variants in the next test derive from B4. Kind of test: SILAC-MS of GST pull-down. The following applies: with partner chain of the complex shown; mitotic 293T cell lysates; replicate R1.
For chain 1 S65A R66A L67A R68A G69A, the screen value (SDs from the mean) was found to be 1.4.

The same test, now with this note: with partner chain of the complex shown; mitotic 293T cell lysates; replicate R2.
As for chain 1 S65A R66A L67A R68A G69A, the screen value (SDs from the mean) was 1.4.
